Measured values published in the supplement of paper PMC9170038.

Tests used:
MS2 coat protein [1] = test: apparent KD of MS2 coat protein, switch OFF state (with FMN for OFF switches, without FMN for ON switches); designed switch direction (-1 OFF switch, 1 ON switch): -1; higher = weaker reporter binding; details: FMN input: 0 or 200 uM; Eterna round: R93 (includes R88 designs)
In short: (§1)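 Normalised binding curves from single clusters were fitted, and the median fit for each design is given as apparent KD. The clusters held designed RNA switches transcribed on-chip from Illumina sequencing clusters. These were titrated with SNAP-549-labelled MS2 coat protein (twofold steps from 0.7 or 1.5 nM to 3 µM, 0.8–1.5 h to 10–20 min per step) in 100 mM Tris-HCl pH 7.5, 80 mM KCl, 4 mM MgCl2, without or with constant ligand.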

MS2 coat protein [2] = test: apparent KD of MS2 coat protein, switch ON state; designed switch direction (-1 OFF switch, 1 ON switch): -1; higher = weaker reporter binding; details: FMN input: 0 or 200 uM; Eterna round: R93 (includes R88 designs)
In short: as §1

| Sequence | apparent KD of MS2 coat protein (MS2 coat protein [1]) | apparent KD of MS2 coat protein (MS2 coat protein [2]) |
| --- | --- | --- |
| ACUAAUGAAGGAUAUACAAACAAAAAAAAAACAACAAACAAACAUGAGGAUCACCCAUGUAGAAGGUCAAAAAU [JR_Exc002_Sub1202] | 17.8 nM | 22.2 nM |
| AAGUCGUGAGGAUAUACAUGGAUAUACAUUCAUGUGGACCUACAUGAGGAUCACCCAUGUAGAAGGCACGAAUA [AJ 49] | 53.5 nM | 35.2 nM |
| CCUGGCUUAGGAUAUACAGGAACCGGGAACCCGGAAGUGAAACAUGAGGAUCACCCAUGUAGAAGGAAGAAAGC [Leusanzaus] | 19.1 nM | 23.9 nM |
| AAAUUGUCAGGAUAUGUACGAACAACAAAACAAAUAACGGUACAGAAGGGACAUGAGGAUCACCCAUGUAUAAA [May 72] | 73.2 nM | 65.8 nM |
| AAAACGGUAGGAUAUACGAUUGGGAACUAGACCGAGGAACCACAUGAGGAUCACCCAUGUAGAAGGGCCAAAAA [Ex2 Malc#14] | 16.7 nM | 16.9 nM |
| AAGGGACAUGAGGAUCACCCAUGUCAGGAUAUCGGAAAAGGAAAAAAAAAAAAGAAGACGAGAAGGGACACCAA | 26.8 nM | 28.6 nM |
| AACUGACAUGAGGAUCACCCAUGUCAGGAUAUGAUUUGACGAAAAAAAAAAAGUCAUAUCAGAAGGGACAUGGA [Design 81: Sub-opt UB] | 41.5 nM | 24.7 nM |
| CCAGAUGCAGGAUAUACAUGAGGAUCACCCAUGUGGCACACACCCACCCACAGCACCCGUAGAAGGGCAGCACG [Halfast on Cytosine - Jieux - Exclusion 3] | 25.9 nM | 27 nM |
| GAAAAGUCAGGAUAUAUGCGAAAAAUAAAAAAAAUAAAAACAUAGAAGGGACAUGAGGAUCACCCAUGUUAAAA [Mat - Exclusion 4 - Mayanna - D134] | 29.7 nM | 41.6 nM |
| GAGAAGUUAGGAUAUACAGCGGGUAGCCGCGGUGGCCUUAGACAUGAGGAUCACCCAUGUAGAAGGAACGAAAA [Tebied] | 12.6 nM | 28.9 nM |
| GGAAAACAUGAGGAUCACCCAUGUGAGGAUAUCGAUGUCCAAACCAAAGUGCGGGACUCGAGAAGGCACUUGGA [salish99-ex1-37] | 28.6 nM | 45.9 nM |
| GAUCAGCUAGGAUAUACAUUAAUCCGAAAUGAGAAGAAAGAACAUGAGGAUCACCCAUGUAGAAGGAGCCAGUA [Usinisat] | 32.1 nM | 33.7 nM |
| GAAGAACAUGAGGAUCACCCAUGUCAGGAUAUACAGAAGGGAAUAAUAUAACCUGAAAGUAGAAGGGACAAGAA [Ex 1 May 43] | 46.2 nM | 33.9 nM |
| AAAAAACAUGAGGAUCACCCAUGUAAGGAUAUGCUCGUGCGAAAAGCACAAAAAAAGAGCAGAAGGUACAAAAA [66%, Wbt, 39] | 33.3 nM | 15.2 nM |
| AAAAAUGGAGGAUAUACAUGAGGAUCACCCAUGUGUAAAAAAAAUUACACAAAAGAAAGUAGAAGGCCAUAAAG [Mat - Exclusion 3 - Mayanna mod - D108] | 139 nM | 59.3 nM |
| AGCUAGUCAGGAUAUACGAACAUGUCAAAAGACGUGAGGGAACAUGAGGAUCACCCAUGUAGAAGGGACUAGCA [Moving G segment in JL's topscorer (74%)] | 37.5 nM | 36.6 nM |
| AAAAUGUCAGGAUAUGUAGCAUGAUACGAAAGUAUCAUGCUACAGAAGGGACAUGAGGAUCACCCAUGUGAUCA [Ex4: 939] | 45 nM | 59.7 nM |
| GGUUGGCGAGGAUAUACAUGAGGAUCACCCAUGUGAGAGAAAAAAGUGAGAAAGAAAAGUAGAAGGCGCUGACC [salish99-ex3-04] | 242 nM | 45.7 nM |
| AGAAAACAUGAGGAUCACCCAUGUGAGGAUAUCGAUGUCCAAAAAAAAGUGCGGGACUCGAGAAGGCACUUGGG | 33.7 nM | 38.9 nM |
| AAUAAACAUGAGGAUCACCCAUGUGAGGAUAUGGUAUUAUUAGGACAGUAAUGAUAUACCAGAAGGCACAAAUA [JR_Exc001_Sub1104] | 53.5 nM | 36.9 nM |
| AAGAGUAGAGGAUAUACAUAAAAAGAGUCGAAAGACUCGGGACAUGAGGAUCACCCAUGUAGAAGGCUACUCAA [Hyphema Seclusion Mod 62% 4] | 406 nM | 98.6 nM |
| AAUAGUGAAGGAUAUACUGGAGGAGUACGAUAAAAGAAAGAACAUGAGGAUCACCCAUGUAGAAGGUCAGAAGU [JR_Exc002_Sub1227] | 24.1 nM | 22.9 nM |
| AAAAAACAUGAGGAUCACCCAUGUGAGGAUAUGCGAAAAAAAAAAUAAAAAAAAAAAAGUAGAAGGUACAAAAA [LROPPY Exclusion 1 - v08_deltaG=5.44] | 26.9 nM | 27.9 nM |

| Sequence | apparent KD of MS2 coat protein (MS2 coat protein [1]) | apparent KD of MS2 coat protein (MS2 coat protein [2]) |
| --- | --- | --- |
| AAGAGUAGAGGAUAUACAAAGGGAGAGUCGAAAGACUCAAAACAUGAGGAUCACCCAUGUAGAAGGCUACUCAA [Hyphema Seclusion Mod 62% 7] | 746 nM | 213 nM |
| AAAAAGUCAGGAUAUGUAGCAAAAGGUGAUCAAAAAAAGCUACAGAAGGGACAUGAGGAUCACCCAUGUAAAAA [Ex4: 937] | 156 nM | 139 nM |
| CUCUAGUGAGGAUAUCCAAGAAAAGAAGAGAAAGAAAAGAAGGAGAAGGCACAUGAGGAUCACCCAUGUAAGAA [EteRNA is fun!] | 35.8 nM | 44.1 nM |
| AGUUGGCGAGGAUAUACAUGAGGAUCACCCAUGUAAGAGAAAAAAAGGAGAAAAAAAAGUAGAAGGCGCUGACA [Mat - Exclusion 3 - Lego mod - D45] | 41.9 nM | 35.4 nM |
| AAAAAACAUGAGGAUCACCCAUGUAAGGAUAUGUAAAAUAAAAGAAAAAUAAAGAAAAGCAGAAGGUAUAUGUA [JL wbt mod 17] | 24.7 nM | 29 nM |
| AAGAAGUGAGGAUAUACAAAAUAAAAGAAAAGAAAGAAAGAACAUGAGGAUCACCCAUGUAGAAGGCGCAAGAA [Merhotepre Ini] | 24.9 nM | 24.5 nM |
| AUGUAGGGAGGAUAUACAUAGAUACAGAUUCAUGUGGAACUACAUGAGGAUCACCCAUGUAGAAGGCCCUAAAA [Mat - Same state - Mayanna Mod - D125] | 117 nM | 27.4 nM |
| AAAGAGUGAGGAUAUUCGGAUAGGAAAACGAAAACCUAUCCGAAGAAGGCACAUGAGGAUCACCCAUGUAAAAA [67% Ecls-II - Early G segment 2] | 39.5 nM | 37.3 nM |
| AGAAAUGUAGGAUAUACAUGAGGAUCACCCAUGUGGGAGGAGGAGCAAACAAGACGAGGUAGAAGGACAACGAC [JR_Exc003-Sub903] | 79.2 nM | 73.5 nM |
| AACAGUACAGGAUAUACAUGAGGAUCACCCAUGUGAAAAUUAAGUGGCGAACCACAAUGUAGAAGGGUACUGGA [Mat - Exclusion 3 - Eli mod - D47] | 25.9 nM | 81.9 nM |
| CUCUUGUCAGGAUAUCCAAGAAAAGAAAAGAAAGAAAAGAAGGAGAAGGGACAUGAGGAUCACCCAUGUAAGAA [EteRNA is fun!] | 113 nM | 72.3 nM |
| AAAAAACAUGAGGAUCACCCAUGUAAGGAUAUGCAAGCAAGAAGAAAGAACAGAAAAAGCAGAAGGUACACACA [Amethyst 73] | 25 nM | 22.4 nM |
| AAGAUGUGAGGAUAUGCUGCUCGUCACAAAAGUGAUGAGUAGCAGAAGGUACAUGAGGAUCACCCAUGUAAAGA [JL eternac mod 7] | 20.9 nM | 32.4 nM |
| GUGUACAGAGGAUAUACUGGAGCUAGGAAACUAGCAAGAUCACAUGAGGAUCACCCAUGUAGAAGGCUGUACAC [Ex2: 743] | 20.2 nM | 90.8 nM |
| AAAAAGUCAGGAUAUGCGAAGGCGUCUGAUAGACGAGGCUAGCAGAAGGGACAUGAGGAUCACCCAUGUAAAGA [Mat - Exclusion 4 - D82] | 51.3 nM | 50 nM |
| AGCAAGUUAGGAUAUGCGAAGUCAGGACACACACUGACGAAGCAGAAGGAACAUGAGGAUCACCCAUGUAAGCA [JR_Exclusion-4 65% 4] | 16.6 nM | 22 nM |
| AAAAAGUGAGGAUAUGUCAAAGGUCACGAAAGUGACAAAGGACAGAAGGCACAUGAGGAUCACCCAUGUGGAAA [Fiskers Exclusion 4D1 65% - Early + late G segment 3] | 27.6 nM | 27.3 nM |
| AGCACGUCAGGAUAUACGAAAAAAAAGGGAAACAACAAGGGACAUGAGGAUCACCCAUGUAGAAGGGACUAGCA [Diamond 97] | 44.3 nM | 49.4 nM |
| AAGGUAUAAGGAUAUGCAUAGAUACAGACACAUGUUCAAGUACAUGAGGAUCACCCAUGUAGAAGGUAUAUAUA [AJ 12] | 26 nM | 32.2 nM |
| AGUCGGCGAGGAUAUACAUGAGGAUCACCCAUGUGAGAGAAAAAAGUGAGUUAGACAAGUAGAAGGCGCUGACA [JL Lego Mod 7] | 172 nM | 44.1 nM |
| AAAAAGCGAGGAUAUACAUGAGGAUCACCCAUGUGAAAGUCGAAAAAAAAGACAAAAAGUAGAAGGCGCAAAAA [Banishment 7 - Jieux - Exclusion 3] | 22.8 nM | 18.3 nM |
| AACCCGCUAGGAUAUACAGCAGGGAUUCGAAAACCCACGAAACAUGAGGAUCACCCAUGUAGAAGGAGUAGGGA [Bereatenat] | 21.1 nM | 22.7 nM |
